Laboratory results published in patent publication US8680046B2, “Inhibitors of viral integrase and methods of use” (Integratech Proteomics, LLC, priority 2009, dated 2014).
Ends that are not written are not given here. Peptide text beside a SMILES is read from it.

Key:
peptide solubility = format: physicochemical; conditions: effect of C-terminal tail
HPVE6 = HPVE6 (Human papillomavirus type 16, UniProt P03126); conditions: two-hybrid
Description: (§1) To identify IN-binding peptides, yeast producing HIV integrase was mated with yeast harboring a random peptide library (15 amino acids in length; 27 million diverse) fused to the VP16 activation domain. […] The peptide was cloned as a C-terminal fusion with VP16-Zsgreen and tested for interaction with the GALDB or GALDB-IN fusion in AH109 Mat a, trp1-901, leu2-3, 112, ura3-52, his3-200, gal4 Δ, gal 80Δ, LYS2::GAL1UAS-GAL1TATA-HIS3, GAL2UAS-GAL2TATA-ADE2, URA3:MEL1UAS-MEL1TATA-lacZ. Growth on -ade plates indicated activation of a selectable reporter.

HPVE7 = HPVE7 (Human papillomavirus type 16, UniProt P03129); conditions: two-hybrid
Sequence of HPVE7 (P03129 whole entry): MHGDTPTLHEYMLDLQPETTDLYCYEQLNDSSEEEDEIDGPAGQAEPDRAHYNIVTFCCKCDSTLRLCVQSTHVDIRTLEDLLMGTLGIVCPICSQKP
Description: as §1

HIV IN [1] = biological target: T1, HIV IN (Human immunodeficiency virus type 1 group M subtype B, UniProt P12497); format: biochemical; conditions: summary statement
HIV IN [2] = biological target: T1, HIV IN; experiment: yeast two-hybrid screen, growth on -ade plates; format: cell-based; set-up: HIV IN was amplified from the pNL4-3 based provirus (R9) as template and cloned into two expression vectors; expressed in transfected cells; host or cells: Saccharomyces cerevisiae AH109; conditions: peptide fused to VP16 activation domain, GALDB-IN bait, FIG. 1
Description: A yeast-based screening platform for identifying inhibitors of IN was constructed. In this platform, HIV IN was amplified from the pNL4-3 based provirus (R9) as template and cloned into two expression vectors resulting in a fusion of IN C-terminus to the GAL4 DNA binding domain (GALDB) and the GAL4 activation domain (GALAD) respectively. By western blot analysis, GALAD-IN was detected (not shown); however, GALDB-IN was barely detectable.
Binders were confirmed by plasmid linkage analysis (FIG. 1).

Sequence of HPVE6 (P03126 whole entry, the tested form may be a part): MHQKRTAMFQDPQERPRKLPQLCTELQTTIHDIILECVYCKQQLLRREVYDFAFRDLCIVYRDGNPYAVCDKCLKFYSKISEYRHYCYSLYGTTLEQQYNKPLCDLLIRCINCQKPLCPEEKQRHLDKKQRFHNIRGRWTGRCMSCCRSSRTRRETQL

Compound | peptide solubility (peptide solubility) | interaction with false bait HPVE6 (HPVE6) | interaction with false bait HPVE7 (HPVE7) | inhibition of integration of viral DNA into target DNA (HIV IN [1]) | interaction with HIV IN by two-hybrid (HIV IN [2])
CC[C@H](C)[C@H](NC(=O)[C@H](CC(C)C)NC(=O)[C@@H](NC(=O)[C@@H](NC(=O)[C@H](CCC(=O)O)NC(=O)[C@H](Cc1ccc(O)cc1)NC(=O)[C@@H](N)CC(C)C)[C@@H](C)O)[C@@H](C)CC)C(=O)N[C@@H](CC(C)C)C(=O)N[C@@H](CC(C)C)C(=O)N[C@@H](Cc1ccccc1)C(=O)N[C@@H](CC(C)C)C(=O)N[C@@H](CC(=O)O)C(=O)N[C@H](C(=O)N[C@@H](CC(=O)O)C(=O)N[C@H](C(=O)NCC(=O)N[C@@H](CCCCN)C(=O)N[C@@H](CCCCN)C(=O)N[C@@H](CCCNC(=N)N)C(=O)O)[C@@H](C)O)C(C)C [B05751] (H-LYETILILLFLDVDTGKKR-OH; N-terminus and C-terminus assumed) | increased peptide solubility | – | – | – | –
LYETILILLFLDVDTG [SEQ ID NO:1] | – | not false baits | not false baits | inhibit the integration of viral DNA into the target DNA | interacted with the viral target
CC[C@H](C)[C@H](NC(=O)[C@H](CC(C)C)NC(=O)[C@@H](NC(=O)[C@@H](NC(=O)[C@H](CCC(=O)O)NC(=O)[C@H](Cc1ccc(O)cc1)NC(=O)[C@@H](N)CC(C)C)[C@@H](C)O)[C@@H](C)CC)C(=O)N[C@@H](CC(C)C)C(=O)N[C@@H](CC(C)C)C(=O)N[C@@H](Cc1ccccc1)C(=O)N[C@@H](CC(C)C)C(=O)N[C@@H](CC(=O)O)C(=O)N[C@H](C(=O)N[C@@H](CC(=O)O)C(=O)N[C@H](C(=O)NCC(=O)N[C@@H](CC(=O)O)C(=O)N[C@@H](CCC(=O)O)C(=O)N[C@@H](CC(=O)O)C(=O)O)[C@@H](C)O)C(C)C [B05759] (H-LYETILILLFLDVDTGDED-OH; N-terminus and C-terminus assumed) | increased peptide solubility | – | – | – | –
